The target in assay [1] is T1, cynomolgus E11 domain protein (cynomolgus monkey).
T1 construct: whole entry named; also called cyno E11
T1 chain: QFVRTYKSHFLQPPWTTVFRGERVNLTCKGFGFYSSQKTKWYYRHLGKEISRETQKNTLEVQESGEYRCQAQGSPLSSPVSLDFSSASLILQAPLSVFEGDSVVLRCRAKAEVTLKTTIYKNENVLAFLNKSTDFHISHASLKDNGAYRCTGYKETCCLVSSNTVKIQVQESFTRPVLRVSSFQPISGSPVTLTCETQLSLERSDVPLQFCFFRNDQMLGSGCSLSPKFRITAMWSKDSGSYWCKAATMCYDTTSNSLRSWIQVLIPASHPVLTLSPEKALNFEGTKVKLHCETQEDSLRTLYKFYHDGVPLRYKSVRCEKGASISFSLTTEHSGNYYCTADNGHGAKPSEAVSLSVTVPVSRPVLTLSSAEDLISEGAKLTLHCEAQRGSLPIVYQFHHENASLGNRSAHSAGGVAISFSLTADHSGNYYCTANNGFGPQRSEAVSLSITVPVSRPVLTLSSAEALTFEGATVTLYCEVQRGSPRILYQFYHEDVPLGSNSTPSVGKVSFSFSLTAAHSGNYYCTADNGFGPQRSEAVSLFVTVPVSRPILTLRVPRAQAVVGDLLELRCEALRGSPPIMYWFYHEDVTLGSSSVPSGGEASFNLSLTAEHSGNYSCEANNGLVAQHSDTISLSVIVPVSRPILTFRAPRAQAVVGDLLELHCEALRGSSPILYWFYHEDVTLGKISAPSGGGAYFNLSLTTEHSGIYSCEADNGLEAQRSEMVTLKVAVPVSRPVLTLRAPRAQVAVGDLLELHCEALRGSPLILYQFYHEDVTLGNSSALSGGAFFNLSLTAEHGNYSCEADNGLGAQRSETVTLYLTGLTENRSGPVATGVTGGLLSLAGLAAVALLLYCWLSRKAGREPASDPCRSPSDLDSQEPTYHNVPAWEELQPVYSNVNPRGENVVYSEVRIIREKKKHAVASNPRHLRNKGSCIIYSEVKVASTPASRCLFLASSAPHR
The assay can be described thus: SPR, IgG capture. The protocol:
Briefly, test antibodies were captured on flow cells 2, 3 or 4 with flow cell 1 as a reference on a protein A Series S CM5 chip (GE Life Sciences, Piscataway, NJ). An FcRH5 protein fragment was used as analyte, with a flow rate of 30 μl/minute. Between injections the capture surface was regenerated by a 30 second injection of 10 mM glycine, pH 1.5 at a flow rate of 10 μl/minute. Interactions were assessed at 25° C. in 10 mM HEPES pH 7.4, 150 mM NaCl, 0.05% Tween 20 (HBSP). Reference data from the reference flow cell and from injection of buffer alone was subtracted prior to kinetic analysis. Kinetic information was calculated by fitting data to a 1:1 binding model. Reference subtraction and data fitting were performed using BIAevaluation software (GE Life Sciences, Piscataway, NJ).

The target of assay [2] is T2, cynomolgus FcRH5 protein fragment (soluble) (cynomolgus monkey).
T2 construct: whole entry named; also called Cyno FcRH5 (BIACORE analyte)
T2 chain: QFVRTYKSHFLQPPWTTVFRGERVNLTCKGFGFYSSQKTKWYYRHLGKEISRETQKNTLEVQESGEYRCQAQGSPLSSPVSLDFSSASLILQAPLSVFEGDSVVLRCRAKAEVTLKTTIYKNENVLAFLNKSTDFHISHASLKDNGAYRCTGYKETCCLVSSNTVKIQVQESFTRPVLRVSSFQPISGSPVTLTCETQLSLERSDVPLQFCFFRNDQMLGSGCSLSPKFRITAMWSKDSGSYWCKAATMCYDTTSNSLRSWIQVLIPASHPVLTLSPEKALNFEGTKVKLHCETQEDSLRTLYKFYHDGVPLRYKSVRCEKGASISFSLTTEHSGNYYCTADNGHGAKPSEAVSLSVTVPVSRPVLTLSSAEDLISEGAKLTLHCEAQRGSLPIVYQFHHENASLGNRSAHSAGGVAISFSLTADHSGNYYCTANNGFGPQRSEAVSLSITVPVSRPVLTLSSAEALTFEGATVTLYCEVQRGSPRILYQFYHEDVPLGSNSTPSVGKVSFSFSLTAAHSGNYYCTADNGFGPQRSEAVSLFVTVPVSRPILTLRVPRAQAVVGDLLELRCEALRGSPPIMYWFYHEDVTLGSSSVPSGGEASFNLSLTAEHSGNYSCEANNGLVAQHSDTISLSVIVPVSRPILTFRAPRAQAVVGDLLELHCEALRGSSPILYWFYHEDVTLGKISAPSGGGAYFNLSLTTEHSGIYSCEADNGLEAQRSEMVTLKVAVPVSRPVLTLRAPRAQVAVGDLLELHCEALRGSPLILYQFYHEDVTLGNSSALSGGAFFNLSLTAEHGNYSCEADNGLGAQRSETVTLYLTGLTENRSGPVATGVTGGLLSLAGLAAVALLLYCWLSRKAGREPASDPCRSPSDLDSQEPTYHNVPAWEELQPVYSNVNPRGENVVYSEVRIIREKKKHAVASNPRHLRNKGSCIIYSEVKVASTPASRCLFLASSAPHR
Nature of the assay: SPR, hIgG capture, 1:1 model. As for the experimental part: (§1) Briefly, a human IgG capture surface was generated on a Series S CM5 chip using amine coupling and the human IgG capture kit (GE Life Sciences, Piscataway, NJ). Test antibodies were then captured on flow cells 2, 3, or 4, with flow cell 1 used as a reference. An FcRH5 protein fragment was used as the analyte, with a flow rate of […]. Between injections the capture surface was regenerated by a 30-second injection of 3M magnesium chloride or 10 mM glycine, pH 1.5. Interactions were assessed at 25° C. in 10 mM HEPES pH7.4, 150 mM NaCl, and 0.05% Tween 20 (HBSP). Reference data from the reference flow cell and from injection of buffer alone were subtracted prior to kinetic analysis. Kinetic information was calculated by fitting data to a 1:1 binding model. Reference subtraction and data fitting were performed using BIAevaluation software (GE Life Sciences, Piscataway, NJ).
(§2) Kinetic characterization experiments were carried out (see Table 8). In these experiments, binding of soluble FcRH5 protein fragment to purified antibodies in human TDB antibody format was analyzed at six different non-zero concentrations (a 1:3 dilution series, one concentration injected twice as a replicate). Flow rate was set at 40 μl/min and association and dissociation monitored for 600 s.
In general terms: SPR reads the build-up and loss of mass on a sensor chip optically.

The target in assay [3] is T3, human FcRH5 protein fragment (soluble) (human, UniProt Q96RD9 16-851).
T3 construct: whole entry named; also called soluble human FcRH5; Human FcRH5 (BIACORE analyte)
T3 sequence: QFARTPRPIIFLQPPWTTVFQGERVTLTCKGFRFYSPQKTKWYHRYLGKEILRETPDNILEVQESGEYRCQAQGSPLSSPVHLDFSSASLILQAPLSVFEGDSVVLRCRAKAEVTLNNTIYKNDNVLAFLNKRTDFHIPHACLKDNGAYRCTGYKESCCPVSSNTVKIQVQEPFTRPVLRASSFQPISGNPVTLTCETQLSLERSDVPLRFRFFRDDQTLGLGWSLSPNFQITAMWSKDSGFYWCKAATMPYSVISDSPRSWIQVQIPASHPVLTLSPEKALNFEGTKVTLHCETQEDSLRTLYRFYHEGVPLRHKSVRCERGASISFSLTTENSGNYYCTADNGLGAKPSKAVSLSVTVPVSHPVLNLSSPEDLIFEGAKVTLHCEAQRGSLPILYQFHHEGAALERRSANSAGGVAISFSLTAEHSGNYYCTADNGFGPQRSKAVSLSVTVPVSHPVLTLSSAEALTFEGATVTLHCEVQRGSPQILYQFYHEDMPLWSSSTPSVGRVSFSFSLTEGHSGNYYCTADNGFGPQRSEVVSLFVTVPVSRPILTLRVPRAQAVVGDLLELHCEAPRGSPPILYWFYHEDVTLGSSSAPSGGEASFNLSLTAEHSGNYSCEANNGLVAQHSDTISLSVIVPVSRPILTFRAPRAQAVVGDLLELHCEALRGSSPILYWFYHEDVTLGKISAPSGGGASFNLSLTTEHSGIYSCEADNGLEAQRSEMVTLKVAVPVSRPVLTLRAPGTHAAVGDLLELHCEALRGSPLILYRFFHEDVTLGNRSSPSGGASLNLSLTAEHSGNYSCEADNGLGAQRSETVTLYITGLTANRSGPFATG
Nature of the assay: SPR, hIgG capture, 1:1 model. As for the experimental part: as §1, §2

Assay [4] addresses T2, cynomolgus FcRH5 protein fragment …. The assay can be described thus: SPR (BIACORE), TDB captured as ligand, Cyno FcRH5 as analyte, 25 °C, 1:1 binding model.
In assay [5] the target is T3, human FcRH5 protein fragment (soluble). Nature of the assay: BIACORE, hIgG capture, 1:1 model, monovalent. The protocol:
as §1, §2

Usually Kd stands for a measure of binding affinity in units of concentration. The low end stands for higher affinity, the high end for lower affinity. Broadly, the koff is the first-order rate constant of dissociation. Low readings indicate slow dissociation, high ones fast dissociation. As a reminder, the kon is the rate constant with which the complex forms.

B1: 15G8 (antibody, mouse IgG2a, V domains shown)
VH: EVQLQQSGPELVKPGASVKMSCKASGYTFTNYVIHWMKQKPGQGLEWIGYISPYNDYTKYNEKFEGKATLTSDKSSNTAYMELSSLTSEDSAVYYCARRDYYGSSDYWGQGTTLTVSS
VL: QIVLTQSPAIMSASPGEKVTMTCSASSSVDYMHWYQQKSGTSPKKWIYDTSKLASGVPARFSGSGSGTSYSLTIGSMEAEDAATYYCQQWSSNPPTFGGGTKLEIK
notes: mouse mAb, Campaign C; recombinant murine IgG2a for SPR; also called mAb 15G8
In the case of B1, the “KD difference between human and cynomolgus E11 domains” value in assay [1] is roughly 20 fold.

B2: hu1G7.v1.4/38E4.v1 TDB (bispecific antibody, V domains shown)
VH 1: EVQLVESGPGLVKPSETLSLTCTVSGFSLTRFGVHWVRQPPGKGLEWLGVIWRGGSTDYNAAFMSRLTISKDNSKNQVSLKLSSVTAADTAVYYCSNHYYGSSDYALDNWGQGTLVTVSS
VL 1: DIQMTQSPSSLSASVGDRVTITCKASQDVRNLVVWFQQKPGKAPKLLIYSGSYRYSGVPSRFSGSGSGTDFTLTISSLQPEDFATYYCQQHYSPPYTFGQGTKVEIK
VH 2: EVQLVQSGAEVKKPGASVKVSCKASGFTFTSYYIHWVRQAPGQGLEWIGWIYPENDNTKYNEKFKDRVTITADTSTSTAYLELSSLRSEDTAVYYCARDGYSRYYFDYWGQGTLVTVSS
VL 2: DIVMTQSPDSLAVSLGERATINCKSSQSLLNSRTRKNYLAWYQQKPGQSPKLLIYWTSTRKSGVPDRFSGSGSGTDFTLTISSLQAEDVAVYYCKQSFILRTFGQGTKVEIK
notes: knob-into-hole TDB; also called 1G7.v1.4 TDB; 1G7.v1.4 (TDB format)
As for B2, in assay [2], binding was put at a Kd of 6.3 nM, the koff came out at 0.0008 s⁻¹ and the kon was determined as 100000 M⁻¹ s⁻¹. In assay [3], this molecule displayed a Kd of 2.4 nM, a koff of 0.001 s⁻¹ and a kon of 500000 M⁻¹ s⁻¹. Also, in assay [4], the Kd turned out to be 6.27 nM, the koff stood at 0.000847 s⁻¹ and the kon was 135000 M⁻¹ s⁻¹.

B3: 1G7.v85/38E4.v1 TDB (bispecific antibody, V domains shown)
VH 1: EVQLVESGPGLVKPSETLSLTCTVSGFSLTRFGVHWVRQPPGKGLEWLGVIWRGGSTDYNAAFVSRLTISKDNSKNQVSLKLSSVTAADTAVYYCSNHYYGSSDYALDNWGQGTLVTVSS
VL 1: DIQMTQSPSSLSASVGDRVTITCKASQDVRNLVVWFQQKPGKAPKLLIYSGSYRYSGVPSRFSGSGSGTDFTLTISSLQPEDFATYYCQQHYSPPYTFGQGTKVEIK
VH 2: EVQLVQSGAEVKKPGASVKVSCKASGFTFTSYYIHWVRQAPGQGLEWIGWIYPENDNTKYNEKFKDRVTITADTSTSTAYLELSSLRSEDTAVYYCARDGYSRYYFDYWGQGTLVTVSS
VL 2: DIVMTQSPDSLAVSLGERATINCKSSQSLLNSRTRKNYLAWYQQKPGQSPKLLIYWTSTRKSGVPDRFSGSGSGTDFTLTISSLQAEDVAVYYCKQSFILRTFGQGTKVEIK
notes: knob-into-hole TDB; also called 1G7.v85 TDB; 1G7.v85 (TDB format)
In assay [2], B3 registered a Kd of 6.8 nM, a koff of 0.0008 s⁻¹ and a kon of 100000 M⁻¹ s⁻¹. In assay [3], the Kd is 2.4 nM, the koff stood at 0.001 s⁻¹ and the kon stood at 400000 M⁻¹ s⁻¹. The molecule further showed a Kd in assay [5] of 2.35 nM.

The values are drawn from US20240383984A1 (Genentech, published 2024).
